T1: Terbium (Tb) labeled-SNAP tagged ROBO2 expressed on HEK293 cells (Homo sapiens (Human), UniProt Q9HCK4 22-1378, terbium label on the SNAP tag)
T1 construct: also called Tb-labeled ROBO2 cells; ROBO2 expressing cells; not shown: SNAP tag
T1 sequence: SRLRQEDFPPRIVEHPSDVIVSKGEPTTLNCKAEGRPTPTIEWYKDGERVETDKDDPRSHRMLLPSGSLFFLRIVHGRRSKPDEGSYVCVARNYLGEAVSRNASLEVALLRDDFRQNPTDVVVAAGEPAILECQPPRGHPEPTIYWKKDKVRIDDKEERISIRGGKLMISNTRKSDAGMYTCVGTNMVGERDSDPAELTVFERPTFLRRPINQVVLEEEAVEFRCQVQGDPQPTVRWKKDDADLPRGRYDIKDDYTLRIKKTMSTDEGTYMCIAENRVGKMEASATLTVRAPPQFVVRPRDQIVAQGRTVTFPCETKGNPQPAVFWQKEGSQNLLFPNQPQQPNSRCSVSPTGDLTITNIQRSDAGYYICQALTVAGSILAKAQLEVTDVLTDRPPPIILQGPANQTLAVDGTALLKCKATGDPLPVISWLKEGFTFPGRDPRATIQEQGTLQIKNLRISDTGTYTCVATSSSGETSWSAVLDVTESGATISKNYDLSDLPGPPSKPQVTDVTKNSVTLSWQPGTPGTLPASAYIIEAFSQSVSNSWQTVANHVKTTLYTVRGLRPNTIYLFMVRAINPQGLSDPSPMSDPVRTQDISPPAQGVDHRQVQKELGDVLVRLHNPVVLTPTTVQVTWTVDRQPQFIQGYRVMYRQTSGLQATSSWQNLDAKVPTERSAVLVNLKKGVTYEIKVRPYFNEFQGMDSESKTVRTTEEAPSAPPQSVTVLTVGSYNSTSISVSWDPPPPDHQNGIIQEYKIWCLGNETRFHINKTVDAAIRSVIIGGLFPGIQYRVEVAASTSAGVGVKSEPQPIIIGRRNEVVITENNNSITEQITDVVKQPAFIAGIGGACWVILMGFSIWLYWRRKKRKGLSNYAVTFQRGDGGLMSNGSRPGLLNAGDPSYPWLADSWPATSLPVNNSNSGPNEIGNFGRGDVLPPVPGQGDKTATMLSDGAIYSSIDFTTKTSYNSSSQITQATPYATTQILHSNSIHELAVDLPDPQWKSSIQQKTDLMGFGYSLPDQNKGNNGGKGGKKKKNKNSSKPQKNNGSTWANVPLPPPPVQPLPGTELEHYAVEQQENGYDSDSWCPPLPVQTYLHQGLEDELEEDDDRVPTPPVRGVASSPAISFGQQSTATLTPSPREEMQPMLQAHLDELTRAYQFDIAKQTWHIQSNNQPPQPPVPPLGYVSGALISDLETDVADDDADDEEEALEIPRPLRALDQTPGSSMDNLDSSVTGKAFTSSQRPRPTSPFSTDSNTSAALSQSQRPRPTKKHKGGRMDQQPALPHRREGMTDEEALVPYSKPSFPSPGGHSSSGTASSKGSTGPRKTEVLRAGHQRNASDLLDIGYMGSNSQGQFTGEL

T2: Human ROBO2 overexpressed on HEK293 cells (human, UniProt Q9HCK4 22-1378)
T2 construct: also called ROBO2 cells; native ROBO2
T2 sequence: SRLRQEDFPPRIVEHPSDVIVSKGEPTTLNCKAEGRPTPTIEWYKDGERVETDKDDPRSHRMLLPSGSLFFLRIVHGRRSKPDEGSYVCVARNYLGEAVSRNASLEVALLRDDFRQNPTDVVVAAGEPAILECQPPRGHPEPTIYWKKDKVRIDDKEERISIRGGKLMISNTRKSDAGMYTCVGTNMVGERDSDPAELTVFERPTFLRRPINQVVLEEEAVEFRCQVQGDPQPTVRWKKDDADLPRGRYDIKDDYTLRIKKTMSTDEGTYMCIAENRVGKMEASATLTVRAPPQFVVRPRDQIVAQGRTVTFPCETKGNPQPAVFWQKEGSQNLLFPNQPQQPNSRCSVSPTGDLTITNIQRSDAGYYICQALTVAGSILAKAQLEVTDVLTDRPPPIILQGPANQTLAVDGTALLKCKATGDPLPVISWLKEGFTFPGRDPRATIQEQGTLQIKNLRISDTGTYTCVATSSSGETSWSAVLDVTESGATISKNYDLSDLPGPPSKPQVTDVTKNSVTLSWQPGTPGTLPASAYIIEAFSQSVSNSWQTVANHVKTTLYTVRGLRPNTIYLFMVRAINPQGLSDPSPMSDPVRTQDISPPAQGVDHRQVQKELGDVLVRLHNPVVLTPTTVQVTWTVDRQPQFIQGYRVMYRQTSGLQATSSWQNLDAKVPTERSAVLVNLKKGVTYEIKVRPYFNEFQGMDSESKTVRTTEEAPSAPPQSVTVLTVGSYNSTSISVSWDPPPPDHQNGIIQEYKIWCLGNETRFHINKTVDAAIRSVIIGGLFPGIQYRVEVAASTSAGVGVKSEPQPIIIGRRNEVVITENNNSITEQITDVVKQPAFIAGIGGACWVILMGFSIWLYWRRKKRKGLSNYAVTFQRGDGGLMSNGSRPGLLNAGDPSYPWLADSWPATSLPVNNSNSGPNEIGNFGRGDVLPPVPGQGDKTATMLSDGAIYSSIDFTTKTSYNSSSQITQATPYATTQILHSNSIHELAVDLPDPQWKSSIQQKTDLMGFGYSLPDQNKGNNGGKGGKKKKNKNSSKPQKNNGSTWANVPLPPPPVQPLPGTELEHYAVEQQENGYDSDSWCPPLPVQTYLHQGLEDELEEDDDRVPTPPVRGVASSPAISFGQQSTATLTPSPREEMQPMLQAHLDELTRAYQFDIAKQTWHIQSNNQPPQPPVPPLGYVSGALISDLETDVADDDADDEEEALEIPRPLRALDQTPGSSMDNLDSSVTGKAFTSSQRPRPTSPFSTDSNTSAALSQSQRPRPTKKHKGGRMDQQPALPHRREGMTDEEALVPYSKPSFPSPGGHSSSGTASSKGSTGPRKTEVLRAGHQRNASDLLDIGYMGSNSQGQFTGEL

B1: Abcs5 (antibody, human IgG1, kappa, V domains shown)
VH: EVQLVQSGAEVKKPGASVKVSCKASGYTFTGYYMHWVRQAPGQGLEWMGWINPKNGDTEFPQKFQGRVTMTRDTSITTAYMDLSRLRSDDTAVYYCARESGDDAFDIWGQGTMVTVSS
VL: DIVMTQSPSSLSASVGDRVTITCRASQSISSYLNWYQQKPGKAPKLLIYAASSLQSGVPSRFSGSGSGTDFTLTISSLQPEDFATYYCQQSLELGFGGGTKVEIKR
notes: chain-shuffled IgG
B2: Abcs12 (antibody, human IgG1, kappa, V domains shown)
VH: EVQLVQSGAEVKKPGASVKVSCKASGYTFTGYYMHWVRQAPGQGLEWMGWINPRNGITSFPQKFQGRVTMTRDTSITTAYMDLSRLRSDDTAVYYCARESGDDAFDIWGQGTMVTVSS
VL: DIVMTQSPSSLSASVGDRVTITCRASQSISSYLNWYQQKPGKAPKLLIYAASSLQSGVPSRFSGSGSGTDFTLTISSLQPEDFATYYCQQSLELGFGGGTKVEIKR
notes: chain-shuffled IgG; also called Abes12
B3: CTIR2-6 (antibody, human IgG1, kappa, V domains shown)
VH: EVQLVQSGAEVKKPGASVKVSCKASGYTFTGYYMHWVRQAPGQGLEWMGWINPKSGATNFPQKFQGRVTMTRDTSITTAYMDLSRLRSDDTAVYYCARESGDDAFDIWGQGTMVTVSS
VL: DIVMTQSPSSLSASVGDRVTITCRASQKISSYLNWYQQKPGKAPKLLIYAASSLQSGVPSRFSGSGSGTDFTLTISSLQPEDFATYYCQQSVGLFFGGGTKVEIKR
notes: CDR-shuffled IgG
B4: CTIR2-13 (antibody, human IgG1, kappa, V domains shown)
VH: EVQLVQSGAEVKKPGASVKVSCKASGYTFRGYAMHWVRQAPGQGLEWMGWIDPRTGLTKFPQKFQGRVTMTRDTSITTAYMDLSRLRSDDTAVYYCARESGDDAFDIWGQGTMVTVSS
VL: DIVMTQSPSSLSASVGDRVTITCRASQKISSYLNWYQQKPGKAPKLLIYAASSLQYGVPSRFSGSGSGTDFTLTISSLQPEDFATYYCQQSYSTSFGGGTKVEIKR
notes: CDR-shuffled IgG
B5: Abcs50 (antibody, human IgG1, kappa, V domains shown)
VH: EVQLVQSGAEVKKPGASVKVSCKASGYTFTGYYMHWVRQAPGQGLEWMGWINPKNGDTEFPQKFQGRVTMTRDTSITTAYMDLSRLRSDDTAVYYCARESGDDAFDIWGQGTMVTVSS
VL: DIVMTQSPSSLSASVGDRVTITCRASQSISSYLNWYQQKPGKAPKLLIYAASSLQYGVPSRFSGSGSGTDFTLTISSLQPEDFATYYCQQSYSTSFGGGTKVEIKR
notes: chain-shuffled IgG
B6: CTIR2-10 (antibody, human IgG1, kappa, V domains shown)
VH: EVQLVQSGAEVKKPGASVKVSCKASGYTFRGYAMHWVRQAPGQGLEWMGWINPRSGVTEFPQKFQGRVTMTRDTSITTAYMDLSRLRSDDTAVYYCARESGDDAFDIWGQGTMVTVSS
VL: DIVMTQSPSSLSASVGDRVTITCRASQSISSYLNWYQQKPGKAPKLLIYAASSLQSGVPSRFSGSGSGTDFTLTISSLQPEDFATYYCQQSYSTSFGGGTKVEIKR
notes: CDR-shuffled IgG
B7: CTIR2-9 (antibody, human IgG1, kappa, V domains shown)
VH: EVQLVQSGAEVKKPGASVKVSCKASGYTFTGYYMHWVRQAPGQGLEWMGWINPKSGATNFPQKFQGRVTMTRDTSITTAYMDLSRLRSDDTAVYYCARESGDDAFDIWGQGTMVTVSS
VL: DIVMTQSPSSLSASVGDRVTITCRASQKISSYLNWYQQKPGKAPKLLIYAASSLQYGVPSRFSGSGSGTDFTLTISSLQPEDFATYYCQQSVGLFFGGGTKVEIKR
notes: CDR-shuffled IgG

Legend:
[1] = target: T1, Terbium (Tb) labeled-SNAP tagged ROBO2 …; test: HTRF, 5 nM d2-SLIT2-N on Tb-SNAP-ROBO2 HEK293 cells, 1 nM antibody
Method: (§1) In this assay, terbium (Tb) labeled-SNAP tagged ROBO2 expressing HEK293 cells were incubated with 5 nM d2-labeled SLIT-2N in the presence of 1 nM anti-ROBO2 antibodies for 1 hour. After incubation, fluorescence at 665 nm and 620 nm was measured on an Envision multilabel plate reader. […] Maximal signal was defined as the HTRF ratio of Tb-labeled ROBO2 cells with d2-labeled SLIT2-N in the absence of antibody, the minimum signal was defined as the HTRF ratio of Tb-labeled ROBO2 expressing HEK293 cells only. One nanomolar (nM) parental antibody, 93H2, was unable to block the HTRF assay, therefore this concentration was selected to identify clones with a higher affinity than 93H2 (Table 2, HTRF Ratio column). […] Antibodies derived from chain (Abcs series) or CDR shuffling (CTIR-2 series) were evaluated in 11-point, 5-fold dilution series with a top concentration of 1500 nM (Table 2 HTRF IC₅₀).
HTRF assays were run with 5 nM d2-labeled SLIT2-N and antibodies were added at 1 nM. […] Antibodies derived from chain (Abcs series) or CDR shuffling (CTIR-2 series) were evaluated in 11-point, 5-fold dilution series with a top concentration of 1500 nM, N.T. = not tested; ^cFold selectivity was calculated as Geometric Mean Fluorescent Intensity (Geo MFI) of ROBO2/Geo MFI of ROBO1 binding.

[2] = target: T1, Terbium (Tb) labeled-SNAP tagged ROBO2 …; test: HTRF competition, competitor d2-SLIT2-N, ROBO2 HEK293 cells
Method: as §1, with “Antibodies generated as a result of the affinity maturation campaign were screened by numerous assays for neutralization of SLIT2-N binding, selective binding to ROBO2 over ROBO1, and inhibition of SLIT2-N functional activity (see Table 2). A ROBO2-SLIT2-N homogenous time resolved fluorescence (HTRF) assay was used to identify antibodies that were capable of blocking SLIT2-N binding to ROBO2. In” for “In”

[3] = target: T3, Human ROBO1 RSK mutant overexpressed on HEK293 cells (human, UniProt Q9Y6N7 26-1651); test: flow cytometry, Geo MFI ROBO1-RSK/ROBO2-KSR HEK293 cells, 2.5 µg/ml
T3 construct: K137R and R139K already in the entry; also called ROBO1-RSK cells
T3 sequence (Q9Y6N7 other isoform, or with tags, fused parts or gaps mutant limits assumed): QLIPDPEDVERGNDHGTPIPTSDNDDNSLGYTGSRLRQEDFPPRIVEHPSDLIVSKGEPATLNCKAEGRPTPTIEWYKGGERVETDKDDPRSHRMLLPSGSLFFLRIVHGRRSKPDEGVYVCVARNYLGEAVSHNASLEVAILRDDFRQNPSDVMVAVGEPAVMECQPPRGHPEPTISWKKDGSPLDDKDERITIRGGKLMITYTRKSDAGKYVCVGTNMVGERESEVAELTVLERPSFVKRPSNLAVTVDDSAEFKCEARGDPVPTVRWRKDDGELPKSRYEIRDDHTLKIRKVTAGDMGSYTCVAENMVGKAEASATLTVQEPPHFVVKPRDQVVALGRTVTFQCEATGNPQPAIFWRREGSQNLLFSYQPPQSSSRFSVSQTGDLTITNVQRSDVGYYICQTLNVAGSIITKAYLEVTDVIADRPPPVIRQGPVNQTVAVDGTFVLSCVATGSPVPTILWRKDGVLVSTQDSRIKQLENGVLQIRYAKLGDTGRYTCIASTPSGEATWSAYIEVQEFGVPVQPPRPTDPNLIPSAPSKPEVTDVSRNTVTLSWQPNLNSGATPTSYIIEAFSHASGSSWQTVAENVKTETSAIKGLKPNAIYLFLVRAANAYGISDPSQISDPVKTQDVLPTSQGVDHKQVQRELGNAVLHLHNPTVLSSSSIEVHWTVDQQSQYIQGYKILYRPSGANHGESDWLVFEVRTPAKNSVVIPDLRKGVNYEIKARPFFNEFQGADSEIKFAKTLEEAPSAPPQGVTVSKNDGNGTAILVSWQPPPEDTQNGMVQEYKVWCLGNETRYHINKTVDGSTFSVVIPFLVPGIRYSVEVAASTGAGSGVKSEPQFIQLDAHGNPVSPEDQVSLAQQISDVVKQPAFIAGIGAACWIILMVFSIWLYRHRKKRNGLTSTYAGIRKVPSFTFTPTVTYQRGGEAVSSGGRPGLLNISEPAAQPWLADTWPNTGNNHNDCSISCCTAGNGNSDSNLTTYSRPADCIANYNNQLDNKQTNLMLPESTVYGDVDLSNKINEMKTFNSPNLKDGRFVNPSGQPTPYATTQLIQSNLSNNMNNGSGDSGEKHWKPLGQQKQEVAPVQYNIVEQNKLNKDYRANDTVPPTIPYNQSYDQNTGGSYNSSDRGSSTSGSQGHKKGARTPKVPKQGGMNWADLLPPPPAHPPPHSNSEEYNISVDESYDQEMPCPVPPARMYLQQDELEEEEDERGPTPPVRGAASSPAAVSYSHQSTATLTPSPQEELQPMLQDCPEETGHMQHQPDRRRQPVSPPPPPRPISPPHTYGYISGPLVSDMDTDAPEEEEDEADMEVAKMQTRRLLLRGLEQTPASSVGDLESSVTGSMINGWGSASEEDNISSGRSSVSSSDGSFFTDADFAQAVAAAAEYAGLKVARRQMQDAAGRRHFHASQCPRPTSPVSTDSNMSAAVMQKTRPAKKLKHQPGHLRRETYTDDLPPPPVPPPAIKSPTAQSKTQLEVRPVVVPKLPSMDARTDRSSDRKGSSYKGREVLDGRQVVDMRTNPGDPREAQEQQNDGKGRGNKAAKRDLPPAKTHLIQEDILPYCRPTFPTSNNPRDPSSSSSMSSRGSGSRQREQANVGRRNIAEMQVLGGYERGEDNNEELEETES

[4] = target: T2, Human ROBO2 overexpressed on HEK293 …; test: flow cytometry, Geo MFI ROBO2/ROBO1 HEK293 cells, 2.5 µg/ml
Method: Binding of the antibodies was detected using a secondary fluorochrome conjugated anti-human IgG F(ab′)₂ antibody and samples were analyzed on a Fortessa cytometer (BD Biosciences). The fold ROBO2 selectivity was calculated as the geometric mean fluorescence intensity (Geo MFI) with ROBO2 cells/Geo MFI with ROBO1 cells. A fold change higher than 3 was considered to be ROBO2 specific (Table 2, Fold Selectivity). Some affinity matured clones had increased ROBO1 reactivity, for example Abcs 55, CTI-R2-10 and CTIR2-13.
HTRF assays were run with 5 nM d2-labeled SLIT2-N and antibodies were added at 1 nM. […] Antibodies derived from chain (Abcs series) or CDR shuffling (CTIR-2 series) were evaluated in 11-point, 5-fold dilution series with a top concentration of 1500 nM, N.T. = not tested; ^cFold selectivity was calculated as Geometric Mean Fluorescent Intensity (Geo MFI) of ROBO2/Geo MFI of ROBO1 binding. […] Outcomes: results are listed in order of assays listed in the table (left to right), I.A. = Improved Affinity

| Binder | HTRF Ratio [1] | IC50 [2] [nM] | Fold Selectivity for RSK/KSR [3] [fold] | Fold Selectivity for ROBO2/ROBO1 [4] [fold] |
| --- | --- | --- | --- | --- |
| B1 | 3540 | 0.036 | 6.7 | 5.1 |
| B2 | 2910 | 0.032 | > 100 | 15.7 |
| B3 | 4160 | 0.067 | > 100 | 35 |
| B4 | 3530 | 0.055 | 2.5 | 2.3 |
| B5 | 2710 | 0.051 | 1.3 | 3.9 |
| B6 | 3920 | 0.04 | 1.4 | 2.3 |
| B7 | 3540 | 0.064 | > 100 | 14.8 |
